Article PMC2132950
Blank lines part the entries; values can stand above or below the substance they belong to.

Columns and labels:
[1] = biological target: taxol-stabilized microtubules (bovine (brain)) (UniProt Q6B856); assay: co-sedimentation
[2] = biological target: kinesin heavy chain deletion mutant H810 (stop codon after amino acid 810), myc-tagged (rat) (UniProt Q2PQA9); assay: co-IP
Chain of UniProt Q2PQA9 (Q2PQA9 2-963, stated change not applied): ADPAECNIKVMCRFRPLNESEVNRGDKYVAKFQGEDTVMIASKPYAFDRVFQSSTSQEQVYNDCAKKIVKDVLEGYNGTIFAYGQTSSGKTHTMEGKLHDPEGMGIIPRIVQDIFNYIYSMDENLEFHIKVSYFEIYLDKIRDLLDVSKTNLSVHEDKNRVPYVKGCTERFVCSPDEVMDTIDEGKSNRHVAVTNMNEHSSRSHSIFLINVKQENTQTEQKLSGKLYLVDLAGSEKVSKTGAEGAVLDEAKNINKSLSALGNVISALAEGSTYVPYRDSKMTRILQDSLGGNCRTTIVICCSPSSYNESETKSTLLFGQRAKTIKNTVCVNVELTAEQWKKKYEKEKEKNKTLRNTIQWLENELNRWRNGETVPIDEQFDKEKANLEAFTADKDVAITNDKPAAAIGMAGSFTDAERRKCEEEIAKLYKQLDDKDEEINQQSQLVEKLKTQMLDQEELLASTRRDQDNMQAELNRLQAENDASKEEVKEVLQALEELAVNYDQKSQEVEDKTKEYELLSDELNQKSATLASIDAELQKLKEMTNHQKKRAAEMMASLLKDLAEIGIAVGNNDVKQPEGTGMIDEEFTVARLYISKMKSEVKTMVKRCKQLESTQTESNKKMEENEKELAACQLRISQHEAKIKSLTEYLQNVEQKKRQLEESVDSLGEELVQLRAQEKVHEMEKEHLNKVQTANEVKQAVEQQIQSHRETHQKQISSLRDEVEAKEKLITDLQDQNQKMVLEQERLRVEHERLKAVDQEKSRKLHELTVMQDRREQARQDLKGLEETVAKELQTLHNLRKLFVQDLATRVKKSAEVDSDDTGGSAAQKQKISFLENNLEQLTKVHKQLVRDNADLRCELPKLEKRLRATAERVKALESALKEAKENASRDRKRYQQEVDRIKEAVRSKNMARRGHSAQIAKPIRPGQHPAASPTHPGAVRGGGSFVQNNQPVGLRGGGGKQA

Chain of UniProt Q6B856 (Q6B856 whole entry, looked up): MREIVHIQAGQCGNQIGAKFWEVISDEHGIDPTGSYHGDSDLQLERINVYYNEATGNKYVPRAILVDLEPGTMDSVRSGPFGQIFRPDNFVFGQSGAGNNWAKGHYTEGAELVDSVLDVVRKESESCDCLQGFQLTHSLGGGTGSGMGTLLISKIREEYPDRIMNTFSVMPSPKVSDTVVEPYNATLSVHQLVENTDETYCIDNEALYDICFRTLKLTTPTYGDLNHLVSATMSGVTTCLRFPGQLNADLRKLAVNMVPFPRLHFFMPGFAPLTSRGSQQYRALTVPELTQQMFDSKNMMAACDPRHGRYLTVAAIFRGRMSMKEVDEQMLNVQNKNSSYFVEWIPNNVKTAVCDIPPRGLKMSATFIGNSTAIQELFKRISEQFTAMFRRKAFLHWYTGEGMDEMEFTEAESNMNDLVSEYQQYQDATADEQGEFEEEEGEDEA

percent of HC bound to MTs [1]: 50%
percent of L176 bound to MTs [1]: 20%
Substance: HC coexpressed with the LC deletion mutant L176 (from UniProt Q2PQA9 1-963; P37285 1-176) (complex)

percent of the HC construct sedimented with MTs [1]: 50 to 95%
Substance: HC deletion mutant H891 coexpressed with LC (from UniProt Q2PQA9 1-891; P37285 1-560) (complex)

Second part, the substance before the results:

Substance: HC deletion mutant H810 coexpressed with LC (from UniProt Q2PQA9 1-810; P37285 1-560) (complex)
percent of the HC construct sedimented with MTs [1]: 90%

Substance: NH2-terminal 420 amino acids of human conventional kinesin heavy chain (from UniProt P33176 1-420) (domain or fragment)
tubulin concentration at half-maximal binding [1]: 0.15 mM

Substance: kinesin light chain splice form C (rat), HA-tagged (from UniProt P37285 1-560) (natural protein)
percent of LC coprecipitated [2]: 50%
